Assay results taken from US20140178332A1 (published 2014).
Positions count from the first letter of the chain named.

B1: murine anti-human IL-12p40 monoclonal antibody 1D4 (antibody, V domains shown)
VH: QVTLKESGPGILQPSQTLSLTCSFSGFSLRKSVMGVSWIRQPSGKGLEWLAHIYWDDDKYYNPSLKSRLTISKDPSRNQVFLKITSVDTADAATYYCTRRGIRSAMDYWGQGTSVTVSS
VL: SVVMTQTPKFLLVSAGDRVTITCKASQSVSNDVAWYQQKPGQSPKLLIYYASNRYTGVPDRFTGSGYGTDFTFIISTVRAEDLAVYFCQQDYNSPWTFGGGTKLEIKR
notes: Murine mAb purified from hybridoma supernatant
B2: murine anti-human IL-12p40 monoclonal antibody 1H6 (antibody, V domains shown)
VH: EVKLVESGGGLVQPGGSRKLSCAASGFTFSDYGMVWVRQAPGKGLEWVAYISSGSSTIHYADTMKGRFTISRDNPKNTLFLQMSSLRSEDTAMYYCARRHYYAMDYWGQGTSVTVSS
VL: B1 VL with V2F, S65T, I74T, R79Q, N93T, W96F, G100S
notes: Murine mAb
B3: murine anti-human IL-12p40 monoclonal antibody 1A6 (antibody, V domains shown)
VH: QVTLKESGPGILKPSQTLSLTCSFSGFSLSTSGMGVSWIRQPSGKGLEWLAHIWWDGDNYYNPSLKSQLTISKDTSRNQVFLRIATVDTADTATYYCARRTRVNYAMDYWGQGTSVTVSS
VL: B1 VL with Y36F, I74T, R79Q
notes: Murine mAb
B4: murine anti-human IL-12p40 monoclonal antibody 4B4 (antibody, V domains shown)
VH: B3 VH with F24L, N59S, Y61S, K66R, Q68R, K73R
VL: B1 VL with I21M, Y36F, I74T, R79Q
notes: Murine mAb
B5: murine anti-human IL-12p40 monoclonal antibody 7G3 (antibody, V domains shown)
VH: EVQLQQSGAEFVRSGASVKLSCTASGLNIKDYYIHWVKQRPEQVLDWIGWIDPENGYSEYAPRFQDKATMTADTSSNTAYLHLSSLTSEDTAVYYCNPGELARYFDYWGQGTTLTVSS
VL: DIVLSQSPATLSVTPGDSVSLSCRASQSISKNLHWYQQKSHESPRLLIKYTSQSISGIPSRFSGSGSGTDFTLSINSVETEDFGMYFCQQSISWPLTFGAGTKLELKR
notes: Murine mAb
B6: murine anti-human IL-12p40 monoclonal antibody 1D8 (antibody, V domains shown)
VH: QVQLQQSGAELMKPGASVKISCKATGYTFSSYWIEWVKQRPGHGLEWIGDILPGSGSTNYNEKFKDKATFTADTSFNTAYMQLSSLTSEDSAVYYCATRRFRGLDYWGQGTTLTVSS
VL: B1 VL with V2I, P40S, I74T, R79Q, A80P, N93T, W96F, G100S
notes: Murine mAb
B7: murine anti-human IL-12p40 monoclonal antibody 3G7 (antibody, V domains shown)
VH: QVQLQQSGAELMKPGASVKISCKATGYTFNDYWIEWVKQRPGHGLEWIGGFSHGSGSTNYNEKFKGKATFTADSSSNTAYMQLSSLTSEDSAVYYCARRRFRGMDYWGQGTSVTVSS
VL: B1 VL with V2I, I74T, S76T, R79Q, N93S, T97S
notes: Murine mAb
B8: murine anti-human IL-12p40 monoclonal antibody 3A11 (antibody, V domains shown)
VH: EVQLQQSGADLEKPGASVKLSCTASGFNIKDTFMHWVKQRPEQGLEWIGRIDPANGHTKYDPKFQGKATITADTSSNTAYLQLSSLTSEDTAVYYCARWGQFGLLWNAMDYWGQGTSVTVSS
VL: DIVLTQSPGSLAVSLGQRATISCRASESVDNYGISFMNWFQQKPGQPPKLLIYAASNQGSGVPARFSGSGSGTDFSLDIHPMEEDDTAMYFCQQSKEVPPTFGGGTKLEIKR
notes: Murine mAb
B9: murine anti-human IL-12p40 monoclonal antibody 5E8 (antibody, V domains shown)
VH: QIQLVQSGPELKKPGETVKISCKASGYSFTDYSMHWVKQAPGKGLKWMDWINTETGEPTYADDFKGRFAFSLETSASTAYLQINNLKNEDTATYFCSRRRYRAFDYWGQGTTLTVSS
VL: B1 VL with V2I, T7S, P40L, I74T, S76N, R79Q, N93T, W96Y, K107Q
notes: Murine mAb

Target: T1, recombinant purified cyno IL-12 p70 (cynomolgus monkey)
T1 chain 1: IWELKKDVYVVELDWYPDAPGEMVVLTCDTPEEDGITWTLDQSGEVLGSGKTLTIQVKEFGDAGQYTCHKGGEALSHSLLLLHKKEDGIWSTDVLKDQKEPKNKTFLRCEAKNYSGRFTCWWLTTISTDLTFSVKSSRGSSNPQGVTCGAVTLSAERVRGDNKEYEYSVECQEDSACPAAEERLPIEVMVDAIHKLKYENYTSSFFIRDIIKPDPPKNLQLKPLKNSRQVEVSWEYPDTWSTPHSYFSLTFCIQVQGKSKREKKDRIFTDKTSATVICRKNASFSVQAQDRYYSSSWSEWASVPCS
T1 chain 2: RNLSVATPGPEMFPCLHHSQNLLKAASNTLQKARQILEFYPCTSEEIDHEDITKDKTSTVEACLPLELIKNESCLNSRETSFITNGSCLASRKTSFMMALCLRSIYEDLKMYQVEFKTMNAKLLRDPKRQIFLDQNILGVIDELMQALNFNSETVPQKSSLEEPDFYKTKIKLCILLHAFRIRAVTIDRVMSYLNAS
Test: cell-based or functional assay

| Binder | Average IC50 (nM) Cyno IL-12, PHA blast IFN-γ assay [nM] |
| --- | --- |
| B1 | 0.078 |
| B2 | 1.6 |
| B3 | 0.044 |
| B4 | 0.028 |
| B5 | > 20 |
| B6 | 1.4 |
| B7 | 0.35 |

target: T2, recombinant purified human IL-12 p70 (human, UniProt P29459 23-219); test: cell-based or functional assay
T2 sequence 1: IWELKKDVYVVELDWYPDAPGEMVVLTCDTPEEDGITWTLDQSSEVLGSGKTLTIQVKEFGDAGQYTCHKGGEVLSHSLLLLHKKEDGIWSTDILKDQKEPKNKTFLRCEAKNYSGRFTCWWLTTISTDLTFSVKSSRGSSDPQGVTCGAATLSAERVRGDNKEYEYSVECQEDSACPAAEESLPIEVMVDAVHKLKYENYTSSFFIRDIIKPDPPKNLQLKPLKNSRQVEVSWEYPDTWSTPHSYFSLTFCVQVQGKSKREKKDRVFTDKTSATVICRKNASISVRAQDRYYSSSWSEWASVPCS
T2 sequence 2: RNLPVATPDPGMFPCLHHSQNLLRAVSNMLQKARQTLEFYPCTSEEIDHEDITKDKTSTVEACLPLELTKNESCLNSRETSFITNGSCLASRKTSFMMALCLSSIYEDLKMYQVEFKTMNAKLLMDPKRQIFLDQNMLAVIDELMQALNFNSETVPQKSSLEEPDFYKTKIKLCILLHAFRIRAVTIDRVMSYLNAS

| Binder | Average IC50 (nM) Human IL-12, PHA blast IFN-γ assay [nM] |
| --- | --- |
| B1 | 0.031 |
| B2 | 0.69 |
| B8 | 3.4 |
| B3 | 0.052 |
| B4 | 0.039 |
| B5 | 0.047 |
| B6 | 0.31 |
| B7 | 0.15 |
| B9 | 12 |

target: T3, recombinant purified mouse IL-12 (Peprotech) (mouse, UniProt P43432 23-335; P43431 23-215); test: direct ELISA, plate coated with 5 ug/ml recombinant mouse IL-12
T3 construct: Bought reagent; also called mu IL-12; murine IL-12
T3 sequence (looked up) 1: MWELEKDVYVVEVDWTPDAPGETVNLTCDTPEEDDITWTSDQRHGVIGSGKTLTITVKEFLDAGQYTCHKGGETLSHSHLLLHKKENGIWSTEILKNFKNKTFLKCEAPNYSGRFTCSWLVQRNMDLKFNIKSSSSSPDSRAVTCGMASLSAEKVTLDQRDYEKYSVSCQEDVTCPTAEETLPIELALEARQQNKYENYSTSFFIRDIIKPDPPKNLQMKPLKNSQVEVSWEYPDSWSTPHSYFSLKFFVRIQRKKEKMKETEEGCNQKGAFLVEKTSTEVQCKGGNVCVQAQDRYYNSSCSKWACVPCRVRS
T3 sequence (looked up) 2: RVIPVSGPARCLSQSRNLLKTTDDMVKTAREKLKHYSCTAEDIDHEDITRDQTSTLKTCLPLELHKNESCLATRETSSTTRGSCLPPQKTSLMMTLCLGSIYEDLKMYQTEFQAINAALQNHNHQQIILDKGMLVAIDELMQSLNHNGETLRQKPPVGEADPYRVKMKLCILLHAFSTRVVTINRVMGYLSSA
Protocol: To determine whether the ten monoclonal antibodies described above recognize murine IL-12, two ELISAs were set up. First, a direct ELISA was set up by directly coating ELISA plates with 5 ug/ml of recombinant purified mouse IL-12 (Peprotech). Murine-anti-human IL-12 p40 mAbs were prepared at various concentrations ranging from 3 to 200 ng/ml in PBS containing 0.1% BSA (Sigma, St. Louis, Mo.). 50 μl of each antibody dilution was added to the coated ELISA plate and incubated for 1 hour at room temperature. Wells were washed 3 times with PBS containing 0.05% Tween-20. Anti-mouse IgG-HRP antibody (R&D #HAF007, Minneapolis, Minn.) was diluted 1:2000 in PBS containing 0.1% BSA; 50 ul/well was added and the plates incubated for 1 hour at room temperature. Fifty microliters of TMB solution (Sigma # T0440, St. Louis, Mo.) was added to each well and incubated for 10 minutes at room temperature. The reaction was stopped by addition of 2N sulphuric acid. Plates were read spectrophotmetrically at a wavelength of 450 nm.

| Binder | binding result |
| --- | --- |
| B1 | no binding (tested: 3 to 200 ng/ml mAb) |
| B2 | no binding (tested: 3 to 200 ng/ml mAb) |
| B8 | no binding (tested: 3 to 200 ng/ml mAb) |
| B3 | no binding (tested: 3 to 200 ng/ml mAb) |
| B4 | no binding (tested: 3 to 200 ng/ml mAb) |
| B5 | no binding (tested: 3 to 200 ng/ml mAb) |
| B6 | no binding (tested: 3 to 200 ng/ml mAb) |
| B7 | no binding (tested: 3 to 200 ng/ml mAb) |
| B9 | no binding (tested: 3 to 200 ng/ml mAb) |

target: T2, recombinant purified human IL-12 p70; test: SPR (Biacore), mAb captured on anti-mouse IgG Fc, IL-12 p70 as analyte
Protocol: The BIACORE assay (Biacore, Inc, Piscataway, N.J.) determines the affinity of antibodies with kinetic measurements of on-, off-rate constants. Binding of antibodies to recombinant purified human IL-12 p70 or recombinant purified human IL-12 p40 were determined by surface plasmon resonance-based measurements with a Biacore® 3000 instrument (Biacore® AB, Uppsala, Sweden) using running HBS-EP (10 mM HEPES [pH 7.4], 150 mM NaCl, 3 mM EDTA, and 0.005% surfactant P20) at 25° C. All chemicals were obtained from Biacore® AB (Uppsala, Sweden) or otherwise from a different source as described in the text. Approximately 5000 RU of goat anti-mouse IgG, (Fcγ), fragment specific polyclonal antibody (Pierce Biotechnology Inc, Rockford, Ill.) diluted in 10 mM sodium acetate (pH 4.5) was directly immobilized across a CM5 research grade biosensor chip using a standard amine coupling kit according to manufacturer's instructions and procedures at 25 μg/ml. Unreacted moieties on the biosensor surface were blocked with ethanolamine. Modified carboxymethyl dextran surface in flowcell 2 and 4 was used as a reaction surface. Unmodified carboxymethyl dextran without goat anti-mouse IgG in flow cell 1 and 3 was used as the reference surface. For kinetic analysis, rate equations derived from the 1:1 Langmuir binding model were fitted simultaneously to association and dissociation phases of all eight injections (using global fit analysis) with the use of Biaevaluation 4.0.1 software. Purified antibodies were diluted in HEPES-buffered saline for capture across goat anti-mouse IgG specific reaction surfaces. Mouse antibodies to be captured as a ligand (25 μg/ml) were injected over reaction matrices at a flow rate of 5 μl/min. The association and dissociation rate constants, kₒₙ (unit M⁻¹ s⁻¹) and koff (unit s⁻¹) were determined under a continuous flow rate of 25 μl/min. Rate constants were derived by making kinetic binding measurements at ten different antigen concentrations ranging from 10-200 nM. The equilibrium dissociation constant (unit M) of the reaction between mouse antibodies and recombinant purified human IL-12 p70 or recombinant purified human IL-12 p40 was then calculated from the kinetic rate constants by the following formula: KD=koff/kₒₙ. Binding is recorded as a function of time and kinetic rate constants are calculated.

| Binder | Kd [pM] | koff [s⁻¹] | kon [M⁻¹ s⁻¹] |
| --- | --- | --- | --- |
| B1 | 120 | 2.9e-05 | 250000 |
| B2 | 250 | 9.9e-05 | 430000 |
| B8 | 1200 | 0.00019 | 150000 |
| B3 | 230 | 3.5e-05 | 150000 |
| B4 | 100 | 1.4e-05 | 130000 |
| B5 | 270 | 0.00028 | 1.1e+06 |
| B6 | 44 | 2.3e-05 | 510000 |
| B7 | 47 | 3.8e-05 | 820000 |
| B9 | 4000 | 0.0023 | 570000 |
